Results published in patent publication US20240117334A1, “FACTOR B PROTEASES” (Vertex Pharmaceuticals Incorporated, priority 2021, published 2024).
Where a chain is given by its changes, count along the chain named. Numbers in names are those of the source. Where “and” joins values, the source holds several entries; their conditions need not be identical. Equal values may be shown once. Read-outs that look alike come from different tables or passages of the source.

B1: Wild type or naturally occurring chymase: wild type human mast cell chymase protease domain (SEQ ID NO: 6) (protein, listed as Homo sapiens)
chain: IIGGTECKPHSRPYMAYLEIVTSNGPSKFCGGFLIRRNFVLTAAHCAGRSITVTLGAHNITEEEDTWQKLEVIKQFRHPKYNTSTLHHDIMLLKLKEKASLTLAVGTLPFPSQFNFVPPGRMCRVAGWGRTGVLKPGSDTLQEVKLRLMDPQACSHFRDFDHNLQLCVGNPRKTKSAFKGDSGGPLLCAGVAQGIVSYGRSDAKPPAVFTRISHYRPWINQILQAN
B2: C22S/F173Y/D175N/A226R: chymase-based engineered protease (protein, listed as Homo sapiens)
chain: B1 chain with C7S, F157Y, D159N, A207R

Columns and labels:
[1] = Baseline stability in indirect and MTSP buffer (+/-EDTA) and PBS at 37° C., peptide substrate EGVDAE-QF; type: physicochemical; details: indirect buffer pH 7.4, MTSP buffer
Method: Further, various chymase-based engineered proteases were tested to evaluate their baseline stability, by testing the effects of indirect and MTSP buffer (+/−EDTA) on the chymase-based engineered proteases. The peptide substrate EGVDAE-QF (SEQ ID NO: 52) was used for these experiments.
FIGS. 4A-4E depict graphs showing the stability of five different chymase proteases tested using a peptide substrate, in PBS, at 37° C.

Human Factor B [2] = target: T1, Human Factor B (Homo sapiens, UniProt P00751); assay: Human Factor B cleavage EC50 in 80% human plasma (Table 10A); type: biochemical
T1 sequence (P00751 26-764): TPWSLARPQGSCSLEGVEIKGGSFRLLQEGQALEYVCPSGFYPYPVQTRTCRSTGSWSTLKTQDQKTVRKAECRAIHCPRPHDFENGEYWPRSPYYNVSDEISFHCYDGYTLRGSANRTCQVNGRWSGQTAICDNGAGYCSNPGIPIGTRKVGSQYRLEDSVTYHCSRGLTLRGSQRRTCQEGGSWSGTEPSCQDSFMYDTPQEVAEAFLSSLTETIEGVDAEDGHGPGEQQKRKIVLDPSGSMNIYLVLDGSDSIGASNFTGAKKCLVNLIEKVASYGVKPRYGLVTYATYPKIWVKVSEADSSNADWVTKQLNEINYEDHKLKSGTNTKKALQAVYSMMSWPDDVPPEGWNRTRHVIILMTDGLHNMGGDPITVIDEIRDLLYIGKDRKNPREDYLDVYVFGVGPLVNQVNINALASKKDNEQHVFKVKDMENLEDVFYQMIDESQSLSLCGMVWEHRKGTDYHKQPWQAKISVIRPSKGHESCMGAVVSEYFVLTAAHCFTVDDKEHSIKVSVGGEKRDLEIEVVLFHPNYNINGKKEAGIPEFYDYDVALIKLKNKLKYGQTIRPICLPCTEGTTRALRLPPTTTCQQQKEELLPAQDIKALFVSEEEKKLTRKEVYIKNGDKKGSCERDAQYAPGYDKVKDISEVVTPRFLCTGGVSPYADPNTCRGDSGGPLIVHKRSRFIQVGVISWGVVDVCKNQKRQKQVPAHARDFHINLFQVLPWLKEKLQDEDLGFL
Method: Cleavage of Factor B by various engineered proteases was evaluated. Engineered chymase-, MTSP-1-, and uPA-based proteases were tested. All references in this Example, including Tables 10A, 10B, 11A, and 11B, to engineered proteases are depicted in chymotrypsin numbering. The chymotrypsin numbering key for the modified protease domains of engineered proteases are found in Tables 2, 4, and 6 for uPA, MTSP-1, and chymase, respectively. These experiments were also performed to evaluate the stability of non-naturally occurring chymases in various media, including cynomolgus monkey vitreous humor, human plasma, and phosphate buffered saline (PBS). Briefly, Factor B was diluted into an assay buffer and incubated at 37° C. with naturally occurring (wild type) and non-naturally occurring (engineered) proteases in vitreous humor, plasma, or PBS, and the reactions were quenched with HCl at various time points. The time points tested for chymase include T=0 which used 6 hours pre-incubation, T=2 hours which used 4 hours pre-incubation, T=4 hours which used 2 hours pre-incubation, and T=6 hours which used 0 hours pre-incubation. Assaying of the sample was performed with ELISA, or alpha screen for human C3 cleavage, using standard protocols.
A summary of the results is presented in Tables 10A-10B below, showing the various tested proteases, the concentration of the protease used in nM and the EC50 of human Factor B cleavage. Table 10 presents human Factor B cleavage by various non-naturally occurring chymase-based engineered proteases, tested in 80% human plasma, compared against a chymase comprising the mutation string […]. Blank cells indicate that a test was not performed for a particular protease mutation string.

serpins = assay: Serpin inhibition tests of chymase-based engineered proteases; type: biochemical
Method: Inhibition tests were carried out using chymase-based engineered proteases. Various serpins, which are capable of inhibiting protease activity, were used to test whether these could be used for adequate inhibition of the tested chymase-based engineered proteases, to enable selection of an engineered protease resistant to inhibition in plasma. All references in this Example to engineered proteases are depicted in chymotrypsin numbering. The chymotrypsin numbering key for the modified protease domains of engineered proteases are found in Tables 2, 4, and 6 for uPA, MTSP-1, and chymase, respectively.

Human Factor B [3] = target: T1, Human Factor B; assay: Human Factor B cleavage EC50 in 80% human plasma (Table 10A); type: biochemical; details: chymase-based; 64% plasma; read-out: fB Cleavage, 64% plasma EC50
[4] = Half-life in 50% human plasma of chymase-based engineered proteases; type: in vitro ADME; details: EGVD′AE substrate
Method: Table 10B presents human Factor B cleavage by various engineered chymase-, MTSP-1-, or uPA-based proteases, tested in mouse or human plasma. For ELISA analysis of Factor B cleavage, briefly, anti-Ba was used, and Bb was detected with anti-Bb. A dynamic range of 25-1600 pM was used. Half-life in 50% human plasma was also calculated for various chymase-based engineered proteases.

| Molecule | stability (remaining activity) in buffers, peptide substrate [1] | EC50 (Human Factor B [2]; Table 20, cleavage activity as of Table 10, unit inferred, read-out: EC50 Fb Cleavage) | EC50 (Human Factor B [2]; chymase-based engineered proteases, no plasma stated, read-out: fB Cleavage EC50) | kapp (serpins; Plasma Inhibitor: ACT) | kapp (serpins; Plasma Inhibitor: alpha-2-marcroglobin (A2M)) | EC50 (Human Factor B [3]) | t1/2 in 50% human plasma (min) (EGVD′AE)(SEQ ID NO: 13) [4] |
| --- | --- | --- | --- | --- | --- | --- | --- |
| B1 | loss of activity in all buffers | – | – | – | – | – | – |
| B2 | – | 170 nM | 151 to 182 nM and 177 nM | 428 M⁻¹ s⁻¹ | 645 M⁻¹ s⁻¹ | 6000 nM and 5620 nM | 7.3 min and 9.0 min |
